Where a chain is given by its changes, count along the chain named.
How the values were obtained:
[1] = molecular target: T1, human angiopoietin-2 (Ang2) (human, UniProt O15123 19-496); assay: Biacore SPR, 25 C, antibody captured on Protein A, soluble Ang2 injected
T1 construct: Bought from R&D Systems (#623-AN); also called human Ang2; hAng2
T1 sequence: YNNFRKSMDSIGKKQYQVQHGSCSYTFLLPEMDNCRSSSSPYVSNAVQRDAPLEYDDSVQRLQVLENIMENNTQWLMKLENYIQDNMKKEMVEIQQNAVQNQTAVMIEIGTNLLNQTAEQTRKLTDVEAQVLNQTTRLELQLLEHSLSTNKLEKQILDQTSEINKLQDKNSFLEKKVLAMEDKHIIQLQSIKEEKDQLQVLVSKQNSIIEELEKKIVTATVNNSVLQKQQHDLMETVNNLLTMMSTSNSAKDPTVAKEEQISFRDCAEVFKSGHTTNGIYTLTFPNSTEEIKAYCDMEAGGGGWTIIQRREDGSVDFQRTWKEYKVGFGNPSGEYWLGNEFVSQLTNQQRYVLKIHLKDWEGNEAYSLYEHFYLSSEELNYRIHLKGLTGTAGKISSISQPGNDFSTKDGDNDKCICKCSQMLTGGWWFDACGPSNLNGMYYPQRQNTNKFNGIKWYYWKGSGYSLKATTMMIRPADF

[2] = molecular target: T1, human angiopoietin-2 (Ang2); assay: Biacore SPR, 25 C; reference H1H685P-293HEK
cyno Ang2 = molecular target: T2, cyno Ang2 (cynomolgus, UniProt A0A2K5VNX6 19-496); assay: Biacore SPR, 37 C, n = 3
T2 construct: also called cynomolgus Ang2
T2 sequence: T1 sequence with E258G, I279V, F284L, I291V, G410A, A468G, D477G

[3] = molecular target: T1, human angiopoietin-2 (Ang2); assay: Biacore SPR, 37 C, n = 3
mouse Ang2 = molecular target: T3, mouse Ang2 (mouse, UniProt O35608 19-496, limits assumed); assay: Biacore SPR, 37 C, n = 3
T3 sequence (looked up): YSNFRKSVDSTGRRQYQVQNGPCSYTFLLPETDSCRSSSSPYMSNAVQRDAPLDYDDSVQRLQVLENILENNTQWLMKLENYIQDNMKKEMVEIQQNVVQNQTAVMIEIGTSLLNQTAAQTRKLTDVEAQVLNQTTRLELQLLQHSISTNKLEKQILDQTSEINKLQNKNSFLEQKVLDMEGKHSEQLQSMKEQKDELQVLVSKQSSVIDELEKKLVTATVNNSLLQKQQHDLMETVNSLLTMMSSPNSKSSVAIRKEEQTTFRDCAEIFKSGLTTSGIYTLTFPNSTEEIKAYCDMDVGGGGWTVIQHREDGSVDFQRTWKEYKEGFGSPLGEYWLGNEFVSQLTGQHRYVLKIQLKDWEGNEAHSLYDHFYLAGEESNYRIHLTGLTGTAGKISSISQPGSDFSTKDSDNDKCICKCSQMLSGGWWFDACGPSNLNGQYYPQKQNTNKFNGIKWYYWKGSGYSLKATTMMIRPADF

dog Ang2 = molecular target: T4, dog Ang2 (dog, UniProt A0A8J8 19-495, limits assumed); assay: Biacore SPR, 37 C, n = 3
T4 sequence (looked up): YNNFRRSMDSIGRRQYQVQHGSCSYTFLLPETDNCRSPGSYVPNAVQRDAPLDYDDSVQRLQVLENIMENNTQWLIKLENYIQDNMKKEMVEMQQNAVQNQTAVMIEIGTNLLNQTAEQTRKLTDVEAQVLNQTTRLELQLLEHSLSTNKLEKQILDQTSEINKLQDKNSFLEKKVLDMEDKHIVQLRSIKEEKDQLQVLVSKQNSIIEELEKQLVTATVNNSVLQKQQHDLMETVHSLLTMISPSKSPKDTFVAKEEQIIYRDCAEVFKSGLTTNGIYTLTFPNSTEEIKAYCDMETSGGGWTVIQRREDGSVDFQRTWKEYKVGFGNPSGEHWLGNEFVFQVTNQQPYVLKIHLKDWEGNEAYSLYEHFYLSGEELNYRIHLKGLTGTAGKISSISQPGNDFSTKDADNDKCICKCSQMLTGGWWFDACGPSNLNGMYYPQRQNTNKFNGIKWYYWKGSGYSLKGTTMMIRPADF

rabbit Ang2 = molecular target: T5, rabbit Ang2 (rabbit, UniProt G1T9B3 19-496); assay: Biacore SPR, 37 C, n = 3
T5 sequence: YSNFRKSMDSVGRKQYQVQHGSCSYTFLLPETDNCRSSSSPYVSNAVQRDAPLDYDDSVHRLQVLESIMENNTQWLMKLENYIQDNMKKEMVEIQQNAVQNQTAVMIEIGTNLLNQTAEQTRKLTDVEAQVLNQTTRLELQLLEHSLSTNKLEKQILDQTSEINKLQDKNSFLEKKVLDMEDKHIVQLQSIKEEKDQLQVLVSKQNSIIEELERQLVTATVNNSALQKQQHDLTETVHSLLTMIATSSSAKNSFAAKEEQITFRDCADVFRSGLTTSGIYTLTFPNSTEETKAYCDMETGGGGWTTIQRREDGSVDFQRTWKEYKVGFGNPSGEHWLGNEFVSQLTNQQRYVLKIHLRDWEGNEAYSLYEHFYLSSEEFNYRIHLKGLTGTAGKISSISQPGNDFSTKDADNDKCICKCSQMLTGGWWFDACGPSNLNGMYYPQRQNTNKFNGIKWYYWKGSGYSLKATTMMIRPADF

rat Ang2 = molecular target: T6, rat Ang2 (rat, UniProt O35462 19-496, limits assumed); assay: Biacore SPR, 37 C, n = 3
T6 sequence (looked up): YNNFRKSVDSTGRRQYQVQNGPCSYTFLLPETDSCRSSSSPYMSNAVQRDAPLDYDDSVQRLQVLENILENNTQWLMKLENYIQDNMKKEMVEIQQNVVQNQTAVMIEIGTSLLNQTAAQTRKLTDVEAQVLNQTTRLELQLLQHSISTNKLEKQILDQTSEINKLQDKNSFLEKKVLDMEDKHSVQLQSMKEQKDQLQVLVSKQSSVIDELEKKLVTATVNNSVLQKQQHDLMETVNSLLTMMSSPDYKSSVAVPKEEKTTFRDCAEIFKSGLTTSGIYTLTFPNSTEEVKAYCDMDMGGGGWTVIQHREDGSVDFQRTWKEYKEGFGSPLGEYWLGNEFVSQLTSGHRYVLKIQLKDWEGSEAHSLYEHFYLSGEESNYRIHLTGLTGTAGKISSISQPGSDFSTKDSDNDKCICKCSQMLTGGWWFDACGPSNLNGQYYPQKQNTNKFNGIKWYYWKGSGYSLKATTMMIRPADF

[4] = molecular target: T1, human angiopoietin-2 (Ang2); assay: KinExA; reference H1H685P-293HEK
[5] = molecular target: T1, human angiopoietin-2 (Ang2); assay: Biacore SPR, 25 C; reference 3.19.3-293HEK
[6] = molecular target: T1, human angiopoietin-2 (Ang2); assay: KinExA 3200, solution equilibrium at 25 C, human Ang2 on sepharose beads
[7] = molecular target: T1, human angiopoietin-2 (Ang2); assay: cell-based or functional assay
[8] = molecular target: T1, human angiopoietin-2 (Ang2); assay: blocking ELISA: antibody titrated against biotinylated human Ang2 (100 ng/ml), binding to coated human Tie2-Fc read

B1: Antibody A (antibody, human IgG4 S228P, kappa, F234A L235A, V domains shown)
VH: QVQLVQSGAEVKKPGASVKVSCKASGYSFTDYNMVWVRQAPGQGLEWMGYIDPYNGGTGYNQKFEGRVTMTTDTSTSTAYMELRSLRSDDTAVYYCARTRDRYDVWYFDVWGQGTLVTVSS
VL: DIQMTQSPSSVSASVGDRVTITCKASQDVYIAVAWYQQKPGKAPKLLIYWASTRDTGVPSRFSGSGSGTDFTLTISSLQPEDFATYYCHQYSSYPPTFGGGTKVEIKR
In the case of B1, the Kd [1] is reported as 0.038 nM, the koff [1] is reported as 2.8e-05 s⁻¹ and the kon [1] is reported as 747000 M⁻¹ s⁻¹. For the same binder, the “fold lower KD than H1H685P-293HEK” value [2] was about 4 fold, the Kd (cyno Ang2) was 0.107 nM and the koff (cyno Ang2) was 0.00029 s⁻¹. The kon (cyno Ang2) was 2.7e+06 M⁻¹ s⁻¹, the Kd [3] was 0.08 nM and the koff [3] was 7e-05 s⁻¹. For the same binder, the kon [3] was 1e+06 M⁻¹ s⁻¹, the Kd (mouse Ang2) was 0.109 nM and the koff (mouse Ang2) was 0.00011 s⁻¹. It also gave a kon (mouse Ang2) of 1e+06 M⁻¹ s⁻¹, a Kd (dog Ang2) of 0.14 nM and a koff (dog Ang2) of 0.00011 s⁻¹. For the same binder, the kon (dog Ang2) was 790000 M⁻¹ s⁻¹, the Kd (rabbit Ang2) was 0.21 nM and the koff (rabbit Ang2) was 0.00015 s⁻¹. The kon (rabbit Ang2) was 730000 M⁻¹ s⁻¹, the Kd (rat Ang2) was 0.18 nM and the koff (rat Ang2) was 0.0002 s⁻¹. For the same binder, the kon (rat Ang2) was 1.2e+06 M⁻¹ s⁻¹, the “fold lower KD than H1H685P-293HEK” value [4] was about 8 fold and the “fold lower KD than 3.19.3-293HEK” value [5] was about 8 fold. For the same binder, the Kd [6] was 0.00011 nM, the “IC50, neutralization of human Ang2 induced phospho-Tie-2 in CHO-Tie-2 cells” value [7] was 0.773 nM and the IC50 [8] was 0.027 nM.
